B1: Signal transducer and activator of transcription 3 (Rattus norvegicus (Rat)), P52631 (parent)
chain: MAQWNQLQQLDTRYLEQLHQLYSDSFPMELRQFLAPWIESQDWAYAASKESHATLVFHNLLGEIDQQYSRFLQESNVLYQHNLRRIKQFLQSRYLEKPMEIARIVARCLWEESRLLQTAATAAQQGGQANHPTAAVVTEKQQMLEQHLQDVRKRVQDLEQKMKVVENLQDDFDFNYKTLKSQGDMQDLNGNNQSVTRQKMQQLEQMLTALDQMRRSIVSELAGLLSAMEYVQKTLTDEELADWKRRQQIACIGGPPNICLDRLENWITSLAESQLQTRQQIKKLEELQQKVSYKGDPIVQHRPMLEERIVDLFRNLMKSAFVVERQPCMPMHPDRPLVIKTGVQFTTKVRLLVKFPELNYQLKIKVCIDKDSGDVAALRGSRKFNILGTNTKVMNMEESNNGSLSAEFKHLTLREQRCGNGGRANCDASLIVTEELHLITFETEVYHQGLKIDLETHSLPVVVISNICQMPNAWASILWYNMLTNNPKNVNFFTKPPIGTWDQVAEVLSWQFSSTTKRGLSIEQLTTLAEKLLGPGVNYSGCQITWAKFCKENMAGKGFSFWVWLDNIIDLVKKYILALWNEGYIMGFISKERERAILSTKPPGTFLLRFSESSKEGGVTFTWVEKDISGKTQIQSVEPYTKQQLNNMSFAEIIMGYKIMDATNILVSPLVYLYPDIPKEEAFGKYCRPESQEHPEADPGSAAPYLKTKFICVTPTTCSNTIDLPMSPRTLDSLMQFGNNGEGAEPSAGGQFESLTFDMDLTSECATSPM
partner: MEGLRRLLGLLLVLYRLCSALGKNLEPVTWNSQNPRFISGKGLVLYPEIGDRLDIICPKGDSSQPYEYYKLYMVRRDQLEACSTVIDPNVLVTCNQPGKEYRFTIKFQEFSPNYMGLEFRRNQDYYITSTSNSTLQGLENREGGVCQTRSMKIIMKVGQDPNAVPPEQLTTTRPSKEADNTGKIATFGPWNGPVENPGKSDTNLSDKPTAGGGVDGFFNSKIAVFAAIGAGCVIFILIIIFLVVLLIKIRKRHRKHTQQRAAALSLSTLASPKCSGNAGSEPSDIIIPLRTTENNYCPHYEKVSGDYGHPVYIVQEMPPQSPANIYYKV
B2: Ephrin-B1 (Xenopus laevis (African clawed frog)), O13097 (parent)
chain: B1 partner

Variants of: B1
Settings: with efnb1_xenla efnb1, O13097

Variant | effect of a mutation on the interaction
R609L | disrupting interaction strength

Variants of: B2
Settings: with stat3_rat Stat3, P52631

Variant | effect of a mutation on the interaction
Y296F;Y312F | decreasing interaction strength
Y296F;Y307F;Y312F | decreasing interaction strength

— IntAct's records for PubMed 17954917
